Assay [1] addresses Prolink (PK)-tagged CXC chemokine receptor 4 (CXCR4) (UniProt P61073).
Assay [2] shares this target. The source holds these as a separate data set.

UniProt P61073, sequence (P61073 whole entry): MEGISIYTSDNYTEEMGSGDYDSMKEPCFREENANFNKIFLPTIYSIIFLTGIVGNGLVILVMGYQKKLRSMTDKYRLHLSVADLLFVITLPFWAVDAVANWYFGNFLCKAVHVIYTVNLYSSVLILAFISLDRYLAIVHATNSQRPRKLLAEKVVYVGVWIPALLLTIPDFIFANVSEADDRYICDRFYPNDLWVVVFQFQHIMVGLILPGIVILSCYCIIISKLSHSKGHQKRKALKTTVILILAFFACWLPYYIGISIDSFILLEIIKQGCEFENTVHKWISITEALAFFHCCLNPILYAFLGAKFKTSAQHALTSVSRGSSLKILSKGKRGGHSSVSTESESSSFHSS

Turning to “CXC chemokine ligand 12 (CXCL12) (from UniProt P48061 22-93)”, in assay [1], the half-time of internalization of SNAP-tagged CXCR4 in HEK293A cells with 1 µM CXCL12 (constitutive: 22.1 min) came out at 14.1 min and the real-time internalization of N-terminally SNAP-tagged CXCR4 in HEK293A cells, CXCL12 0.1 nM to 1 µM, potency of CXCL12 (pEC50) came out at 7.7 pEC50. The β-arrestin2 recruitment to PK-tagged CXCR4 (PathHunter, C2C12 cells), potency of CXCL12 (pEC50) in assay [2] came to 7.7 pEC50.

The values above are taken from PMC8115334.
